B1: omega-1 (ω1) glycoprotein carrying Man3Gn2 (natural protein)
chain: QNRWDYYVFSVTWPPTYCESIQCRLPRGLRDFTIHGLWPTIFPNRQPNCTGSLRFDIRRLQGIRNELDLMWPHLKNYRESPSFWKHEFEKHGLCAVEDPQVFNQYGYFKFGIKLMQKLNLLKTLMKYKISPHDSRQYDTINLMNVLEREFGYNGSANCIRKPGRRGMYHLEEVHVCLNRKHEFMNCPFLGNCPKKFIFPPFQ
modifications: N-glycans Man3Gn2 (oligomannose-3, paucimannosidic); sites not stated
B2: omega-1 (ω1) glycoprotein carrying Man3Gn2F1[6] (natural protein)
chain: QNRWDYYVFSVTWPPTYCESIQCRLPRGLRDFTIHGLWPTIFPNRQPNCTGSLRFDIRRLQGIRNELDLMWPHLKNYRESPSFWKHEFEKHGLCAVEDPQVFNQYGYFKFGIKLMQKLNLLKTLMKYKISPHDSRQYDTINLMNVLEREFGYNGSANCIRKPGRRGMYHLEEVHVCLNRKHEFMNCPFLGNCPKKFIFPPFQ
modifications: N-glycans Man3Gn2F1[6] (α1,6 core-fucosylated oligomannose-3); sites not stated
B3: omega-1 (ω1) glycoprotein carrying X1Man3Gn2F1[3] (natural protein)
chain: QNRWDYYVFSVTWPPTYCESIQCRLPRGLRDFTIHGLWPTIFPNRQPNCTGSLRFDIRRLQGIRNELDLMWPHLKNYRESPSFWKHEFEKHGLCAVEDPQVFNQYGYFKFGIKLMQKLNLLKTLMKYKISPHDSRQYDTINLMNVLEREFGYNGSANCIRKPGRRGMYHLEEVHVCLNRKHEFMNCPFLGNCPKKFIFPPFQ
modifications: N-glycans X1Man3Gn2F1[3] (oligomannose-3 with β1,2-xylose on mannose 3 and α1,3 core fucose); sites not stated
B4: omega-1 (ω1) glycoprotein carrying Man3Gn2F1[3] (natural protein)
chain: QNRWDYYVFSVTWPPTYCESIQCRLPRGLRDFTIHGLWPTIFPNRQPNCTGSLRFDIRRLQGIRNELDLMWPHLKNYRESPSFWKHEFEKHGLCAVEDPQVFNQYGYFKFGIKLMQKLNLLKTLMKYKISPHDSRQYDTINLMNVLEREFGYNGSANCIRKPGRRGMYHLEEVHVCLNRKHEFMNCPFLGNCPKKFIFPPFQ
modifications: N-glycans Man3Gn2F1[3] (α1,3 core-fucosylated oligomannose-3); sites not stated

T1 sequence (P08191 22-179): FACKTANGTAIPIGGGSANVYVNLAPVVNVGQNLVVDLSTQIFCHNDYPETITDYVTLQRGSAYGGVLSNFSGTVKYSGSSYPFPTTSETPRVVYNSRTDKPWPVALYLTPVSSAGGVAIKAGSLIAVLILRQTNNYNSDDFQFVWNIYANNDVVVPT

The test has as its target T1, FimH lectin domain (residues Phe1-Thr158) (Escherichia coli, UniProt P08191 22-179).
T1 construct: FimH type-1 fimbrial adhesin of Escherichia coli, lectin domain, residues Phe1-Thr158; No tag is mentioned; also called FimH adhesin; source: E. coli C43(DE3), pET24a vector, purified (sulfopropyl fast flow cation exchange chromatography)
Nature of the test: SPR; single-cycle kinetics on BIAcore T200; ω1-glycoprotein immobilised on a CM5 chip via primary amino groups (EDC/NHS); FimH as analyte at 14.4, 7.17, 3.60, 1.80, 0.9 μM; 20 mM Hepes, 150 mM NaCl, 0.005% Tween; 30 μl/min; 298 K; fit to the Langmuir 1:1 model. As to conditions: both partners purified. For orientation: In SPR one partner is held on a chip, and binding of the other changes the refractive index at the surface.
On to B1, for which binding was put at a Kd of 0.0336 µM; the koff (in general, the rate constant with which the complex falls apart) is 0.00013 s⁻¹; the kon (usually a measure of how fast the partners come together) is 3890 M⁻¹ s⁻¹.
For B2 the same measures were 0.134 µM, 8.89e-05 s⁻¹ and 663 M⁻¹ s⁻¹.
For B3 the same measures were 6 µM, 0.0015 s⁻¹ and 257 M⁻¹ s⁻¹.
For B4 the same measures were 0.128 µM, 6.72e-05 s⁻¹ and 525 M⁻¹ s⁻¹.

The values above are taken from article PMC10127133, “Structural insights into a cooperative switch between one and two FimH bacterial adhesins binding pauci- and high-mannose type N-glycan receptors” (The Journal of Biological Chemistry, 2023).
